This assay addresses PS372424 (CXCR3 agonist).

B1: CXCR3-A expressed from pEGFPN2 in HEK-293 cells (HEK-CXCR3-A) (receptor)
chain: MVLEVSDHQVLNDAEVAALLENFSSSYDYGENESDSCCTSPPCPQDFSLNFDRAFLPALYSLLFLLGLLGNGAVAAVLLSRRTALSSTDTFLLHLAVADTLLVLTLPLWAVDAAVQWVFGSGLCKVAGALFNINFYAGALLLACISFDRYLNIVHATQLYRRGPPARVTLTCLAVWGLCLLFALPDFIFLSAHHDERLNATHCQYNFPQVGRTALRVLQLVAGFLLPLLVMAYCYAHILAVLLVSRGQRRLRAMRLVVVVVVAFALCWTPYHLVVLVDILMDLGALARNCGRESRVDVAKSVTSGLGYMHCCLNPLLYAFVGVKFRERMWMLLLRLGCPNQRGLQRQPSSSRRDSSWSETSEASYSGL
For B1, binding was put at a Kd of 40 nM.

These data come from article PMC5691136 (2017).
